The text below walks through data of publication PMC9542875.

Experiment [1] has as its target allophycocyanin αβ dimer (purified APC, Sigma-Aldrich A7472) (UniProt P72504). The experiment is described as follows: native MS; purified APC, 1 μM hexamer (6 μM bilin); 100 mM ammonium acetate; without metal ions and with Ag+, Cu2+, Fe2+/3+ or Zn2+ (oligomeric equilibrium unchanged on a short timescale; prolonged exposure to Cu2+ gives dissociation towards the dimer).

The target of experiment [2] is phycocyanin αβ dimer (Arthrospira maxima CCAP 1475/9) (Arthrospira maxima (CCAP 1475/9)). Put plainly: native MS; purified PC (24 μM bilin) with Ag+ at 0.25 and 0.5 bilin equivalents; 100 mM ammonium acetate.
The target is the same in experiment [3]. The experiment is described as follows: native MS; purified PC without metal ions, 1 μM hexamer (Fig. 1D); 100 mM ammonium acetate pH 6.8; nano-electrospray, Orbitrap; hexamer to αβ dimers.

“allophycocyanin αβ dimer (purified APC, Sigma-Aldrich A7472) (from UniProt P72504 1-161; P72505 1-161) (complex)”: the stoichiometry N in experiment [1] turned out to be 3.
Consider “phycocyanin αβ dimer (Arthrospira maxima CCAP 1475/9) (from UniProt P72509 1-162; P72508 1-172) (complex)”, for which the stoichiometry N in experiment [2] is 2; in experiment [3] it was 3.
